Measured values as given in patent publication US20250206799A1 (KEROS THERAPEUTICS, published 2025).
Changes are numbered by the printed parent chain.

T1: extracellular ActRIIB (SEQ ID NO: 17) fused to the N-terminus of hFc through a GGG linker (human, UniProt Q13705 20-134)
T1 construct: also called ActRIIB-Fc; not shown: hFc
T1 sequence: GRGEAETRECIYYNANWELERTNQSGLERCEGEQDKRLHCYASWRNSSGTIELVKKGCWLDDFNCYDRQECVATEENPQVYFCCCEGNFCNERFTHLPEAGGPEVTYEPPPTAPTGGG

T2: BMP-9, Q9UK05
T2 chain: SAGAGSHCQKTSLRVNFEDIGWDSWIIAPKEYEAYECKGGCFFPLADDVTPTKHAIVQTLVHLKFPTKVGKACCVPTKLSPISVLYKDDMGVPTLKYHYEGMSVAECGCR

B1: growth differentiation factor 11 (GDF11) (ligand, UniProt O95390 299-407, looked up)
chain: NLGLDCDEHSSESRCCRYPLTVDFEAFGWDWIIAPKRYKANYCSGQCEYMFMQKYPHTHLVQQANPRGSAGPCCTPTKMSPINMLYFNDKQQIIYGKIPGMVVDRCGCS
B2: extracellular ActRIIB variant ActRIIB 2.01 (SEQ ID NO: 4) fused to the N-terminus of hFc through a GGG linker (Fc fusion)
chain: T1 sequence with T74K, E75K, E76D, N77S, Q79E
notes: also called ActRIIB 2.01 variant; not shown: hFc
B3: extracellular ActRIIB variant ActRIIB 2.02 (SEQ ID NO: 5) fused to the N-terminus of hFc through a GGG linker (Fc fusion)
chain: T1 sequence with S25T, S47I, T74K, E75K, E76D, N77S, Q79E
notes: also called ActRIIB 2.02 variant; not shown: hFc
B4: extracellular ActRIIB variant ActRIIB 2.03 (SEQ ID NO: 6) fused to the N-terminus of hFc through a GGG linker (Fc fusion)
chain: T1 sequence with S25T, S47I, S48T, T74K, E75K, E76D, N77S, Q79E
notes: also called ActRIIB 2.03 variant; not shown: hFc
B5: extracellular ActRIIB variant ActRIIB 2.04 (SEQ ID NO: 7) fused to the N-terminus of hFc through a GGG linker (Fc fusion)
chain: T1 sequence with R29P, T74K, E75K, E76D, N77S, Q79E
notes: also called ActRIIB 2.04 variant; not shown: hFc
B6: extracellular ActRIIB variant ActRIIB 2.05 (SEQ ID NO: 8) fused to the N-terminus of hFc through a GGG linker (Fc fusion)
chain: T1 sequence with E31Y, E33D, Q34K, T74K, E75K, E76D, N77S, Q79E
notes: also called ActRIIB 2.05 variant; not shown: hFc
B7: extracellular ActRIIB variant ActRIIB 2.06 (SEQ ID NO: 9) fused to the N-terminus of hFc through a GGG linker (Fc fusion)
chain: T1 sequence with Y41F, R45K, K56Q, T74K, E75K, E76D, N77S, Q79E
notes: also called ActRIIB 2.06 variant; not shown: hFc
B8: extracellular ActRIIB variant ActRIIB 2.07 (SEQ ID NO: 10) fused to the N-terminus of hFc through a GGG linker (Fc fusion)
chain: T1 sequence with Y12F, L19K, E20D, T74K, E75K, E76D, N77S, Q79E
notes: also called ActRIIB 2.07 variant; not shown: hFc
B9: extracellular ActRIIB variant ActRIIB 2.08 (SEQ ID NO: 11) fused to the N-terminus of hFc through a GGG linker (Fc fusion)
chain: T1 sequence with E31Y, E33D, L38R, T74K, E75K, E76D, N77S, Q79E
notes: also called ActRIIB 2.08 variant; not shown: hFc
B10: extracellular ActRIIB variant ActRIIB/A (SEQ ID NO: 2) fused to the N-terminus of hFc through a GGG linker (Fc fusion)
chain: GRGEAETRECIFYNANWEKDRTNQSGLEPCYGDQDKRRHCFASWKNSSGTIELVKQGCWLDDINCYDRQECVAKKDSPEVYFCCCEGNFCNERFTHLPEAGGPEVTYEPPPTAPTGGG
notes: also called ActRIIB/A variant; not shown: hFc
B11: extracellular ActRIIB variant ActRIIBΔ9 (SEQ ID NO: 3) fused to the N-terminus of hFc through a GGG linker (Fc fusion)
chain: T1 sequence with E20D, F63I, E75K
notes: also called ActRIIBΔ9 variant; not shown: hFc
B12: ActRIIB 2.11 (SEQ ID NO: 14)-Fc (Fc fusion, not shown: a dimerising Fc or GST)
chain: GRGEAETRECLYYNANWELERTNQSGVERCEGEKDKRLHCYASWRNSSGSLEIVKKGCWLDDFNCYDRTDCVATKENPQVYFCCCEGNMCNERFTHLPEAGGPEVTYEPPPTAPT
notes: also called ActRIIB 2.11 variant; ActRIIB 2.11-Fc
B13: ActRIIB 2.12 (SEQ ID NO: 15)-Fc (Fc fusion, not shown: a dimerising Fc or GST)
chain: B12 chain with T69D, D70T
notes: also called ActRIIB 2.12 variant; ActRIIB 2.12-Fc
B14: extracellular ActRIIA (SEQ ID NO: 16) fused to the N-terminus of hFc through a GGG linker (Fc fusion)
chain: AILGRSETQECLFFNANWEKDRTNQTGVEPCYGDKDKRRHCFATWKNISGSIEIVKQGCWLDDINCYDRTDCVEKKDSPEVYFCCCEGNMCNEKFSYFPEMEVTQPTSGGG
notes: also called ActRIIA-Fc; not shown: hFc
B15: extracellular ActRIIB variant ActRIIB 2.09 (SEQ ID NO: 12) fused to the N-terminus of hFc through a GGG linker (Fc fusion)
chain: T1 sequence with I11L, L27V, Q34K, T50S, I51L, L53I, Q69T, E70D, F89M
notes: also called ActRIIB 2.09 variant; not shown: hFc
B16: extracellular ActRIIB variant ActRIIB 2.10 (SEQ ID NO: 13) fused to the N-terminus of hFc through a GGG linker (Fc fusion)
chain: T1 sequence with I11L, L27V, Q34K, T50S, I51L, L53I, Q69D, E70T, F89M
notes: also called ActRIIB 2.10 variant; not shown: hFc
B17: Activin A (ligand, UniProt P08476 311-426, looked up)
chain: GLECDGKVNICCKKQFFVSFKDIGWNDWIIAPSGYHANYCEGECPSHIAGTSGSSLSFHSTVINHYRMRGHSPFANLKSCCVPTKLRPMSMLYYDDGQNIIKKDIQNMIVEECGCS
B18: Activin B (ligand, UniProt P09529 293-407, looked up)
chain: GLECDGRTNLCCRQQFFIDFRLIGWNDWIIAPTGYYGNYCEGSCPAYLAGVPGSASSFHTAVVNQYRMRGLNPGTVNSCCIPTKLSTMSMLYFDDEYNIVKRDVPNMIVEECGCA
B19: BMP-9 (ligand, UniProt Q9UK05 320-429, looked up)
chain: T2 chain
notes: also called bone morphogenetic protein 9

What follows are binders tested against T1, extracellular ActRIIB (SEQ ID NO: 17) … (assay: SPR (Biacore 3000), ActRII-Fc captured by anti-Fc antibody, ligand in solution, CM-4 chip). Details: not given.
Source text: (§1) The GE Biacore 3000 was used to measure the kinetics of the interactions between the ActRIIB-Fc variants and the ligands Activin A, Activin B, growth differentiation factor 11 (GDF11), and BMP-9. ActRIIA, ActRIIB, ActRIIB 2.06, ActRIIB 2.11 and ActRIIB 2.12 were recombinant proteins. All other ActRIIB-Fc variants were expressed by transient expression in HEK293 cells and purified from the conditioned media using Protein-A Sepharose chromatography. Flow cells 1-4 were immobilized with anti-human/anti-mouse capture antibodies from GE using the amine coupling kit. The ActRII-Fc proteins were then captured on the chip in flow cells 2-4, with flow cell 1 being left empty as a reference cell to measure and subtract any nonspecific binding. HBS-EP+ buffer from GE Healthcare™ was used as a running buffer. Each ligand was run in a duplicate concentration series at 40 μl/min to avoid mass transport effects. All data was collected on a CM-5 chip except for GDF-11, which used CM-4. The data was analyzed using Scrubber2 by BioLogic™ Software to calculate the KD of each interaction (Table 3).

Binder | Kd [pM]
B1 | 120

These binders were tested against B1 in the same assay as above. Details: not given.
Source text: as §1

Binder | binding result | Kd [pM]
B2 | no binding | –
B3 | no binding | –
B4 | no binding | –
B5 | no binding | –
B6 | no binding | –
B7 | – | 27
B8 | no binding | –
B9 | no binding | –
B10 | no binding | –
B11 | – | 530000
B12 | – | 240
B13 | – | 130

What follows are binders tested against B14 in the same assay as above. Details: not given.
Source text: as §1

Binder | Kd [pM]
B1 | 81

Biological target: T2, BMP-9, Q9UK05
Assay: SPR (Biacore 3000), ActRII-Fc captured by anti-Fc antibody, ligand in solution
Details: remark: other sources report otherwise

Binder | Kd [pM]
B10 | 88000

What follows are binders tested against B18 in the same assay as above. Details: not given.
Source text: as §1

Binder | binding result | Kd [pM]
B2 | no binding | –
B3 | no binding | –
B4 | no binding | –
B5 | no binding | –
B6 | no binding | –
B7 | – | 100
B8 | no binding | –
B9 | no binding | –
B10 | no binding | –
B11 | – | 400000
B14 | – | 370
B15 | – | 160
B16 | – | 280
B12 | – | 370
B13 | – | 160

Each binder was assayed against B17 in the same assay as above. Details: not given.
Source text: as §1

Binder | binding result | Kd [pM]
B2 | no binding | –
B3 | no binding | –
B4 | no binding | –
B5 | no binding | –
B6 | no binding | –
B7 | – | 53
B8 | no binding | –
B9 | no binding | –
B10 | no binding | –
B11 | – | 390000
B14 | – | 1000
B15 | – | 100
B16 | – | 450
B12 | – | 780
B13 | – | 140

These binders were tested against T1, extracellular ActRIIB (SEQ ID NO: 17) … in the same assay as above. Details: not given.
Source text: as §1

Binder | Kd [pM]
B17 | 63
B18 | 23
B19 | 280

What follows are binders tested against B19 in the same assay as above. Details: not given.
Source text: as §1

Binder | binding result | Kd [pM]
B2 | no binding | –
B3 | no binding | –
B4 | no binding | –
B5 | no binding | –
B6 | no binding | –
B7 | – | 300
B8 | no binding | –
B9 | no binding | –
B11 | – | 28000
B15 | – | 440
B16 | – | 1700
B12 | – | 2700
B13 | – | 31000

The binders below were run against B14 in the same assay as above. Details: not given.
Source text: as §1

Binder | Kd [pM]
B19 | 25000
